# In US20220177587A1, “METHODS AND USES OF VARIANT CD80 FUSION PROTEINS AND RELATED CONSTRUCTS” (Alpine Immune Sciences, Inc., priority 2018, published 2022):
# What was measured:
# [1] = molecular target: T1, CD28 (Homo sapiens, UniProt P10747); assay: Flow binding to Jurkat/IL2 reporter cells (CD28); set-up: host or cells: Jurkat cells expressing an IL-2-luciferase reporter
# Description: (§1) Binding of selected immunomodulatory fusion proteins to cognate binding partners was assessed. […] Cells were sorted in a Bio-Rad S3 Cell Sorter (Bio-Rad Corp., USA) to >98% purity. Jurkat/IL2 reporter cells, which endogenously express CD28, were used to detect binding to CD28.
# (§2) For staining and analysis by flow cytometry, 100,000 cells of appropriate transfected cells were plated in 96-well round bottom plates. Cells were spun down and resuspended in staining buffer (phosphate buffered saline (PBS), 1% bovine serum albumin (BSA), and 0.1% sodium azide) for 20 minutes to block non-specific binding. […] Primary staining was performed on ice for 45 minutes, before washing cells in staining buffer twice. Phycoerythrin (PE)-conjugated anti-human Fc (Jackson ImmunoResearch, USA) was diluted 1:150, added to cells and incubated another 30 minutes on ice. Cells were then washed twice with 150 μL/well stain buffer, fixed in 2% formaldehyde/PBS, and analyzed on Intellicyt flow cytometer (Intellicyt Corp., USA). PE Mean Fluorescence Intensity (MFI) was calculated for each cell type with FlowJo Version 10 software (FlowJo LLC, USA).
# (§3) Binding assays were carried out to assess the specificity and affinity of multivalent proteins to cell-expressed CTLA-4, CD28, and PD-L1 counter structures.
# (§4) The EC50 for binding also was determined.
# [2] = molecular target: huCTLA4 (Homo sapiens, UniProt P16410); assay: Flow binding to CHO cells stably expressing CTLA4; set-up: huCTLA4 and huPD-L1, full-length mammalian surface expression constructs were generated; expressed in transfected cells; host or cells: CHO cells, lentiviral transduction, sorted to >98% purity; settings: CHO cells stably expressing CTLA4
# Chain of huCTLA4 (P16410 36-223): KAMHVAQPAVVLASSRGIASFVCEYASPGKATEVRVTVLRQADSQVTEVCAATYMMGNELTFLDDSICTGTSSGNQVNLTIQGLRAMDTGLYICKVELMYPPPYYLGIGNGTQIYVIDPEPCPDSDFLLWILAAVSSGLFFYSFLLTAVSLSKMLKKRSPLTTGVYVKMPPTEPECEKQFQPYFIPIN
# Description: as §1, §2, §3, §4
# [3] = molecular target: huPD-L1 (Homo sapiens, UniProt Q9NZQ7); assay: Flow binding to CHO cells stably expressing PD-L1; set-up: huCTLA4 and huPD-L1, full-length mammalian surface expression constructs were generated; expressed in transfected cells; host or cells: CHO cells, lentiviral transduction, sorted to >98% purity
# Chain of huPD-L1 (Q9NZQ7 19-290): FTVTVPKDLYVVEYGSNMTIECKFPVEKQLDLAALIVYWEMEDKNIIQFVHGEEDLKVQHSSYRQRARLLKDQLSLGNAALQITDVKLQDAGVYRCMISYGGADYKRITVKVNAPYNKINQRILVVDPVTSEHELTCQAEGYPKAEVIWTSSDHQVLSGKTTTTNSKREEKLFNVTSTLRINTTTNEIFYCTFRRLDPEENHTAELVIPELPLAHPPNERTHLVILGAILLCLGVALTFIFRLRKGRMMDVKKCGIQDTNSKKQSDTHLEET
# Description: as §1, §2, §3, §4
# [4] = molecular target: T1, CD28; assay: Jurkat/IL2 + CHO/OKT3 +/- PD-L1 reporter assay: PD-L1-dependent CD28 costimulation; format: cell-based; set-up: host or cells: Jurkat cells expressing an IL-2-luciferase reporter; settings: Table E22; Jurkat/IL2 + CHO/OKT3/PD-L1; CD80 Conc 5.0 nM
# Description: Jurkat cells were then plated at 50 μL/well for a total of 100,000 cells per well.
# To each well, 25 μL of test protein was added to the Jurkat cells. […] The Jurkat cells with test or control proteins were incubated for 15 minutes at room temperature. CHO-derived artificial antigen presenting cells (aAPC) displaying transduced cell surface anti-CD3 single chain Fv (OKT3) (i.e., no PD-L1), or OKT3 and PD-L1 (i.e., +PD-L1), were brought to 0.8×10^6 cells/mL, and 25 μL of cells were added to each well, bringing the final volume of each well to 100 μL. […] Jurkat cells and CHO cells were incubated for 5 hours at 37 degrees Celsius in a humidified 5% CO2 incubation chamber. Plates were then removed from the incubator and acclimated to room temperature for 15 minutes. 100 μL of a cell lysis and luciferase substrate solution (BioGlo luciferase reagent, Promega) were added to each well and the plates were incubated on an orbital shaker for 10 minutes. Luminescence was measured with a 1 second per well integration time using a BioTek Cytation luminometer, and a relative luminescence value (RLU) was determined for each test sample.
# [5] = Table E20, Jurkats (CD28), 33.3 nM
# [6] = Table E20, CHO cells stably expressing PD-L1, 33.3 nM
# [7] = Table E23, CD80 IgV-Fc (inert) at 33.3 nM, Jurkat (CD28)
# [8] = Table E23, CD80 IgV-Fc (inert) at 33.3 nM
# [9] = Table E19, CHO cells stably expressing PD-L1, 33.3 nM
# [10] = Table E23, CD80 IgV-Fc (inert) at 33.3 nM, CHO cells stably expressing PD-L1
Substance,"CD28 MFI at 33.3 nM [1, 5]","CTLA4 MFI at 33.3 nM ([2]; Table E20, 33.3 nM)","PD-L1 MFI at 33.3 nM [3, 6]","Relative Luciferase Units (RLU), CD80 Conc 5.0 nM [4]","CD28 MFI at 33.3 nM [1, 7]","PD-L1 MFI at 33.3 nM [3, 10]",also measured
H18Y/A26E/M47L/V68M/A71G,544,21742,29730,–,–,–,–
E35D/M47L/V68M/A71G/D90G,3072,26007,29377,–,–,–,–
H18Y/A26E/E35D/M47L/V68M,–,20015,24683,895 RLU,–,–,–
WT CD80 ECD-Fc: wild-type CD80 ECD (SEQ ID NO:2)-Fc; R&D Systems where stated [reference compound],42.3,–,6377,–,–,–,"CD28 MFI at 33.3 nM ([1]; Table E3, 33.3 nM): 7627; CD28 MFI at 33.3 nM ([1]; Table E4, 33.3 nM, Jurkat cells (CD28)): 18035; CD28 MFI at 33.3 nM ([1]; Table E11, Jurkats (CD28), 33.3 nM): 31; CD28 MFI at 33.3 nM ([1]; Table E14, Jurkats (CD28), 33.3 nM): 30; CD28 MFI at 33.3 nM ([1]; Table E16, consensus variants, Jurkats (CD28), 33.3 nM): 46; CD28 MFI at 33.3 nM ([1]; Table E25, linker variants, 33.3 nM, Jurkats (CD28)): 37; EC50 ([1]; Table E31, flow binding to Jurkats (CD28), read-out: CD28 EC50): 164 nM; PD-L1 MFI at 33.3 nM ([3]; Table E3, 33.3 nM): 7943; PD-L1 MFI at 33.3 nM ([3]; Table E4, 33.3 nM, CHO cells stably expressing PD-L1): 11871; PD-L1 MFI at 33.3 nM ([3]; Table E11, CHO cells stably expressing PD-L1, 33.3 nM): 52; PD-L1 MFI at 33.3 nM ([3]; Table E14, CHO cells stably expressing PD-L1, 33.3 nM): 68; PD-L1 MFI at 33.3 nM ([3]; Table E16, consensus variants, CHO cells stably expressing PD-L1, 33.3 nM): 58; PD-L1 MFI at 33.3 nM ([3]; Table E25, linker variants, 33.3 nM, CHO cells stably expressing PD-L1): 35; EC50 ([3]; Table E31, flow binding to CHO cells stably expressing PD-L1): 31.2 nM"
A26E/E35D/M47L/V68M/A71G,–,24587,27806,1010 RLU,–,–,–
Fc Control,15.4,37.9,77.1,–,81,185,"CTLA4 MFI at 33.3 nM ([2]; Table E19, 33.3 nM): 52; CTLA4 MFI at 33.3 nM [2, 8]: 194; PD-L1 MFI at 33.3 nM [3, 9]: 44"
CD80 WT ECD-Fc,–,–,–,–,57.8,161,–
H18V/A26R/E35D/M47L/V68M/A71G/D90G,–,–,–,–,9620,73166,"CTLA4 MFI at 33.3 nM [2, 8]: 23151"
Inert Fc,–,–,–,–,–,–,"CD28 MFI at 33.3 nM ([1]; Table E10, 33.3 nM, Jurkats (CD28)): 23; CTLA4 MFI at 33.3 nM ([2]; Table E10, 33.3 nM): 65.7; PD-L1 MFI at 33.3 nM ([3]; Table E10, 33.3 nM, CHO cells stably expressing PD-L1): 41"
H18Y/E35D/M47L/A71G/D90G,–,22983,13327,851 RLU,–,–,–
H18Y/E35D/M47L/V68M/D90G,3389,–,27410,852 RLU,–,–,–
WT CD80 ECD-Fc (Abcam),–,–,–,–,–,–,"CD28 MFI at 33.3 nM ([1]; Table E19, Jurkats (CD28), 33.3 nM): 709; PD-L1 MFI at 33.3 nM [3, 9]: 128"
H18Y/A26N/E35D/M47F/V68M/A71G/D90G,–,–,–,–,82.2,26510,–
